In US20250122277A1 (Novartis, published 2025):

What was measured:
rec rhesus monkey IL-17 [1] = molecular target: T1, rec rhesus monkey IL-17 (rhesus monkey, UniProt F6T3G5 24-155); test: SPR (BIAcore 2000), mean n = 12
T1 sequence: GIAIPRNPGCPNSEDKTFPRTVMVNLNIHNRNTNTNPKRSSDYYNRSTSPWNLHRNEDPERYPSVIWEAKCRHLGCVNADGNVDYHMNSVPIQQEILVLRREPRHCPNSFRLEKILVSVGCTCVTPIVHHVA
Description: (§1) Determination of kinetic binding parameters and levels of crossreactivity are done by surface plasmon resonance measurements using the optical biosensor BIAcore® 2000 (BIAcore AB, Upsalla, Sweden, see Lit. HS 1,2 for details). This technology allows the label-free determination the microscopic rate constants for binding (kₒₙ) and dissociation (koff) of a ligand to a receptor. It is therefore especially suited for characterizing the antibody-antigen interactions. […] Covalent binding of Fcγ capture antibody is done with the ‘Amine coupling kit’ provided by BIAcore (BIAcore, Cat. No. BR-1000-50). […] As a guideline, 1000 RUs correspond to a mass transfer of 1 ng/mm². […] The results are compared to the protocol described in Table 9 (see below).
(§2) Two independent runs testing 6 IL-17 concentrations in each run are performed. Concentrations for human IL-17 are 2, 4, 8, 12, 16, 20 nM and 10, 20, 30, 40, 50, 60 nM for all other species. Complete data analysis yields n=12 individual measurements for each IL-17 species. The KD as well as SEM is reported.

rec marmoset IL-17 [2] = molecular target: T2, rec marmoset IL-17 (marmoset, UniProt A0ACM8QD00 24-153); test: SPR (BIAcore 2000), mean n = 10
T2 sequence: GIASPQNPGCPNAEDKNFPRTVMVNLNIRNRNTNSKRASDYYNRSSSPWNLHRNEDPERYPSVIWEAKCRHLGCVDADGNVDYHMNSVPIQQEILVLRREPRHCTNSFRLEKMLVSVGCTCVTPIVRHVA
Description: as §1, §2

rec rhesus monkey IL-17 [3] = molecular target: T1, rec rhesus monkey IL-17; test: SPR (BIAcore 2000), mean of run 1 + 2
Description: as §1, §2

[4] = molecular target: T3, rec cynomolgous monkey IL-17 (cynomolgous monkey); test: SPR (BIAcore 2000), mean of run 1 + 2
Description: as §1, §2

[5] = molecular target: T3, rec cynomolgous monkey IL-17; test: SPR (BIAcore 2000), 5 nM IL-17, run 1
Description: as §1
(§3) Two independent runs testing 6 IL-17 concentrations in each run are performed. […] Complete data analysis yields n=12 individual measurements for each IL-17 species. The KD as well as SEM is reported.

[6] = molecular target: T3, rec cynomolgous monkey IL-17; test: SPR (BIAcore 2000), 5 nM IL-17, run 2
Description: as §1, §3

rec marmoset IL-17 [7] = molecular target: T2, rec marmoset IL-17; test: SPR (BIAcore 2000), 10 nM IL-17, run 1
Description: as §1, §2

rec rhesus monkey IL-17 [8] = molecular target: T1, rec rhesus monkey IL-17; test: SPR (BIAcore 2000), 10 nM IL-17, run 1
Description: as §1, §2

[9] = molecular target: T3, rec cynomolgous monkey IL-17; test: SPR (BIAcore 2000), 10 nM IL-17, run 1
Description: as §1, §2

rec marmoset IL-17 [10] = molecular target: T2, rec marmoset IL-17; test: SPR (BIAcore 2000), 10 nM IL-17, run 2
Description: as §1, §2

rec rhesus monkey IL-17 [11] = molecular target: T1, rec rhesus monkey IL-17; test: SPR (BIAcore 2000), 10 nM IL-17, run 2
Description: as §1, §2

[12] = molecular target: T3, rec cynomolgous monkey IL-17; test: SPR (BIAcore 2000), 10 nM IL-17, run 2
Description: as §1, §2

rec marmoset IL-17 [13] = molecular target: T2, rec marmoset IL-17; test: SPR (BIAcore 2000), 20 nM IL-17, run 1
Description: as §1, §2

rec rhesus monkey IL-17 [14] = molecular target: T1, rec rhesus monkey IL-17; test: SPR (BIAcore 2000), 20 nM IL-17, run 1
Description: as §1, §2

[15] = molecular target: T3, rec cynomolgous monkey IL-17; test: SPR (BIAcore 2000), 20 nM IL-17, run 1
Description: as §1, §2

rec marmoset IL-17 [16] = molecular target: T2, rec marmoset IL-17; test: SPR (BIAcore 2000), 20 nM IL-17, run 2
Description: as §1, §2

rec rhesus monkey IL-17 [17] = molecular target: T1, rec rhesus monkey IL-17; test: SPR (BIAcore 2000), 20 nM IL-17, run 2
Description: as §1, §2

[18] = molecular target: T3, rec cynomolgous monkey IL-17; test: SPR (BIAcore 2000), 20 nM IL-17, run 2
Description: as §1, §2

rec marmoset IL-17 [19] = molecular target: T2, rec marmoset IL-17; test: SPR (BIAcore 2000), 30 nM IL-17, run 1
Description: as §1, §2

rec rhesus monkey IL-17 [20] = molecular target: T1, rec rhesus monkey IL-17; test: SPR (BIAcore 2000), 30 nM IL-17, run 1
Description: as §1, §2

[21] = molecular target: T3, rec cynomolgous monkey IL-17; test: SPR (BIAcore 2000), 30 nM IL-17, run 1
Description: as §1, §2

rec marmoset IL-17 [22] = molecular target: T2, rec marmoset IL-17; test: SPR (BIAcore 2000), 30 nM IL-17, run 2
Description: as §1, §2

rec rhesus monkey IL-17 [23] = molecular target: T1, rec rhesus monkey IL-17; test: SPR (BIAcore 2000), 30 nM IL-17, run 2
Description: as §1, §2

[24] = molecular target: T3, rec cynomolgous monkey IL-17; test: SPR (BIAcore 2000), 30 nM IL-17, run 2
Description: as §1, §2

rec marmoset IL-17 [25] = molecular target: T2, rec marmoset IL-17; test: SPR (BIAcore 2000), 40 nM IL-17, run 1
Description: as §1, §2

rec rhesus monkey IL-17 [26] = molecular target: T1, rec rhesus monkey IL-17; test: SPR (BIAcore 2000), 40 nM IL-17, run 1
Description: as §1, §2

rec marmoset IL-17 [27] = molecular target: T2, rec marmoset IL-17; test: SPR (BIAcore 2000), 40 nM IL-17, run 2
Description: as §1, §2

rec rhesus monkey IL-17 [28] = molecular target: T1, rec rhesus monkey IL-17; test: SPR (BIAcore 2000), 40 nM IL-17, run 2
Description: as §1, §2

rec marmoset IL-17 [29] = molecular target: T2, rec marmoset IL-17; test: SPR (BIAcore 2000), 50 nM IL-17, run 1
Description: as §1, §2

rec rhesus monkey IL-17 [30] = molecular target: T1, rec rhesus monkey IL-17; test: SPR (BIAcore 2000), 50 nM IL-17, run 1
Description: as §1, §2

rec rhesus monkey IL-17 [31] = molecular target: T1, rec rhesus monkey IL-17; test: SPR (BIAcore 2000), 60 nM IL-17, run 1
Description: as §1, §2

rec rhesus monkey IL-17 [32] = molecular target: T1, rec rhesus monkey IL-17; test: SPR (BIAcore 2000), 60 nM IL-17, run 2
Description: as §1, §2

rec marmoset IL-17 [33] = molecular target: T2, rec marmoset IL-17; test: SPR (BIAcore 2000), 50 nM IL-17, run 2
Description: as §1, §2

[34] = molecular target: T3, rec cynomolgous monkey IL-17; test: SPR (BIAcore 2000), 15 nM IL-17, run 2
Description: as §1, §3

[35] = molecular target: T3, rec cynomolgous monkey IL-17; test: SPR (BIAcore 2000), 25 nM IL-17, run 1
Description: as §1, §3

[36] = molecular target: T3, rec cynomolgous monkey IL-17; test: SPR (BIAcore 2000), 25 nM IL-17, run 2
Description: as §1, §3

[37] = molecular target: T3, rec cynomolgous monkey IL-17; test: SPR (BIAcore 2000), mean (printed n = 10)
Description: as §1, §2

B1: recombinant human AIN457 (batch KB03303A) (antibody, V domains shown)
VH: EVQLVESGGGLVQPGGSLRLSCAASGFTFSNYWMNWVRQAPGKGLEWVAAINQDGSEKYYVGSVKGRFTISRDNAKNSLYLQMNSLRVEDTAVYYCVRDYYDILTDYYIHYWYFDLWGRGTLVTVSS
VL: not shown
notes: same variable domains as m1; also called AIN457 (KB03303A); NVP-AIN457 (KB03303A)
Kd (rec rhesus monkey IL-17 [1]): 8.96 nM | Kd (rec marmoset IL-17 [2]): 1.21 nM | Kd (rec rhesus monkey IL-17 [3]): 9 nM | Kd [4]: 6 nM | Kd [5]: 1.1 nM | Kd [6]: 7.08 nM | Kd (rec marmoset IL-17 [7]): 0.895 nM | Kd (rec rhesus monkey IL-17 [8]): 2.28 nM | Kd [9]: 2.24 nM | Kd (rec marmoset IL-17 [10]): 1.13 nM | Kd (rec rhesus monkey IL-17 [11]): 7.04 nM | Kd [12]: 6.9 nM | Kd (rec marmoset IL-17 [13]): 0.782 nM | Kd (rec rhesus monkey IL-17 [14]): 7.34 nM | Kd [15]: 4.75 nM | Kd (rec marmoset IL-17 [16]): 1.17 nM | Kd (rec rhesus monkey IL-17 [17]): 5.93 nM | Kd [18]: 7.17 nM | Kd (rec marmoset IL-17 [19]): 1.17 nM | Kd (rec rhesus monkey IL-17 [20]): 6.04 nM | Kd [21]: 7.89 nM | Kd (rec marmoset IL-17 [22]): 1.57 nM | Kd (rec rhesus monkey IL-17 [23]): 8.16 nM | Kd [24]: 8.32 nM | Kd (rec marmoset IL-17 [25]): 1.17 nM | Kd (rec rhesus monkey IL-17 [26]): 12.4 nM | Kd (rec marmoset IL-17 [27]): 1.36 nM | Kd (rec rhesus monkey IL-17 [28]): 9.74 nM | Kd (rec marmoset IL-17 [29]): 1.21 nM | Kd (rec rhesus monkey IL-17 [30]): 11.2 nM | Kd (rec rhesus monkey IL-17 [31]): 13.1 nM | Kd (rec rhesus monkey IL-17 [32]): 12.3 nM | Kd (rec marmoset IL-17 [33]): 1.67 nM | Kd [34]: 7.41 nM | Kd [35]: 6.26 nM | Kd [36]: 7.34 nM | Kd [37]: 6 nM
